Article PMC9482650, “Quantitative fragmentomics allow affinity mapping of interactomes” (Nature Communications, 2022)

Tests used:
Experiment in all cases: holdup assay
Parameters in all cases: key: below the threshold = too weak to quantify, mostly under pKd 3.1 to 4
SNTG2, Q9NY99 = biological target: T1, SNTG2, Q9NY99
T1 sequence (Q9NY99 68-166, limits assumed, looked up): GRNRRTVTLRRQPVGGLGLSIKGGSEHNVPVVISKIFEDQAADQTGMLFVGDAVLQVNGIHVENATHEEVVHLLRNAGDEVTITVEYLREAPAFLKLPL

SNTB1, Q13884 = biological target: T2, SNTB1, Q13884
T2 sequence (Q13884 107-205, limits assumed, looked up): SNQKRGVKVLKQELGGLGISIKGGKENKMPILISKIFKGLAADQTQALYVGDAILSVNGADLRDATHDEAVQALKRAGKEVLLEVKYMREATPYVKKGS

AHNAK1, Q09666 = biological target: AHNAK1, Q09666
PDZD2_2, O15018 = biological target: T3, PDZD2_2, O15018
T3 sequence (O15018 329-429, limits assumed, looked up): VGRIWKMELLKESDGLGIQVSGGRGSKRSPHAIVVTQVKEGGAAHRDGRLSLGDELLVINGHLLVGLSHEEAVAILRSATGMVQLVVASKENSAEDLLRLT

LIN7C, Q9NUP9 = biological target: T4, LIN7C, Q9NUP9
T4 sequence (Q9NUP9 88-185, limits assumed, looked up): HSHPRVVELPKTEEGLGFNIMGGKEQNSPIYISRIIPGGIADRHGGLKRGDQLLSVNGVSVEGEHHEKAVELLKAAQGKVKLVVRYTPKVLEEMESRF

DLG2_2, Q15700 = biological target: DLG2_2, Q15700
NHERF3_4, Q5T2W1 = biological target: T5, NHERF3_4, Q5T2W1
T5 sequence (Q5T2W1 373-468, limits assumed, looked up): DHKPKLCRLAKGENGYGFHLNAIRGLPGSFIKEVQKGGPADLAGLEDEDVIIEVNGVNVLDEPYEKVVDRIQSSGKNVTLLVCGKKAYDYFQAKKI

TIAM2, Q8IVF5 = biological target: T6, TIAM2, Q8IVF5
T6 sequence (Q8IVF5 885-986, limits assumed, looked up): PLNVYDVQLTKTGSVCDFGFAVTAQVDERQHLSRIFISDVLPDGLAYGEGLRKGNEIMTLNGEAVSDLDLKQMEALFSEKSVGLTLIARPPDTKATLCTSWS

PDZRN3_1, Q9UPQ7 = biological target: T7, PDZRN3_1, Q9UPQ7
T7 sequence (Q9UPQ7 244-349, limits assumed, looked up): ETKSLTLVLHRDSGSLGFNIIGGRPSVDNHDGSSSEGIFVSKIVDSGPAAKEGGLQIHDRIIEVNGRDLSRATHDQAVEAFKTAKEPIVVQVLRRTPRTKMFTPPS

Inadl_3, Q8NI35 = biological target: Inadl_3, Q8NI35
FRMPD2_2, Q68DX3 = biological target: FRMPD2_2, Q68DX3
LNX1_2, Q8TBB1 = biological target: LNX1_2, Q8TBB1
SCRIB_2, Q14160 = biological target: SCRIB_2, Q14160
LAP2, Q96RT1 = biological target: LAP2, Q96RT1
HTRA4, P83105 = biological target: T8, HTRA4, P83105
T8 sequence (P83105 378-476, limits assumed, looked up): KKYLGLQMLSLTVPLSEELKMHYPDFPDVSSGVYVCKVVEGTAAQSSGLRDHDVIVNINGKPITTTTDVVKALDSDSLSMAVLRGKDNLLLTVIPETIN

GRIP1_4, Q9Y3R0 = biological target: T9, GRIP1_4, Q9Y3R0
T9 sequence (Q9Y3R0 467-571, limits assumed, looked up): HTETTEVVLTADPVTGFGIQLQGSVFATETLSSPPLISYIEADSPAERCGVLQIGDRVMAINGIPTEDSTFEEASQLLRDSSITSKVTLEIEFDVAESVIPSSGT

DLG1_3, Q12959 = biological target: DLG1_3, Q12959
LNX1_3, Q8TBB1 = biological target: LNX1_3, Q8TBB1
ARHGEF11, O15085 = biological target: T10, ARHGEF11, O15085
T10 sequence (O15085 42-136, limits assumed, looked up): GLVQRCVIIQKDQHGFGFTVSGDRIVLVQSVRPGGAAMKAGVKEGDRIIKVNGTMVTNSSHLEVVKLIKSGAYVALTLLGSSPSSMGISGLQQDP

TJP1_3, Q07157 = biological target: TJP1_3, Q07157
Inadl_6, Q8NI35 = biological target: Inadl_6, Q8NI35
MAGI2_4, Q86UL8 = biological target: MAGI2_4, Q86UL8
IL16_4, Q14005 = biological target: IL16_4, Q14005
APBA3_1, O96018 = biological target: T11, APBA3_1, O96018
T11 sequence (O96018 389-490, limits assumed, looked up): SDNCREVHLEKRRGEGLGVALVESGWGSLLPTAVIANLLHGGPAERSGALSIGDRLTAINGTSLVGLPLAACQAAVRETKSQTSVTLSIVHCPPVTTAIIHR

SNX27, Q96L92 = biological target: SNX27, Q96L92
LNX2_3, Q8N448 = biological target: T12, LNX2_3, Q8N448
T12 sequence (Q8N448 463-564, limits assumed, looked up): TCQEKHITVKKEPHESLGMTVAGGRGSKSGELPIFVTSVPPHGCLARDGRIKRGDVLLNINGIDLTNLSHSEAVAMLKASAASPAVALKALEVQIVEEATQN

[1] = plain residues with an end cap or a label only (N-terminal biotin on a linker: ado-ado)
[2] = modified: phospho on T at position -2 from the C-terminal residue

DLG1_3, Q12959, sequence (Q12959 457-571): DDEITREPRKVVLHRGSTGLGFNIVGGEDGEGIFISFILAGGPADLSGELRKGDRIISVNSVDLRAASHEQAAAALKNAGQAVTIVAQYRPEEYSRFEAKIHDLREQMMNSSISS
FRMPD2_2, Q68DX3, sequence (Q68DX3 944-1038): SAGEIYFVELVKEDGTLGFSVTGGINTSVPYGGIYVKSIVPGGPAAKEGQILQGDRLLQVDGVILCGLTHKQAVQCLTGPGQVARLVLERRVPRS
LAP2, Q96RT1, sequence (Q96RT1 other isoform, or with tags, fused parts or gaps): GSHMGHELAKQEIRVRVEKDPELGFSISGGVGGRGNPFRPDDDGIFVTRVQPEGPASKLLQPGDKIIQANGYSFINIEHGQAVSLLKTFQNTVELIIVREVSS
TJP1_3, Q07157, sequence (Q07157 416-512): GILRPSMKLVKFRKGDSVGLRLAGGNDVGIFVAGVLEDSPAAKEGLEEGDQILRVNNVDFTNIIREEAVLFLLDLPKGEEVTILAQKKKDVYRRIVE
AHNAK1, Q09666, sequence (Q09666 4-100): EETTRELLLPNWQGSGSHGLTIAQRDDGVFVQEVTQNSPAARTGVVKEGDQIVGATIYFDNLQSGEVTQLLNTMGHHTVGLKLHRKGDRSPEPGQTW
Inadl_3, Q8NI35, sequence (Q8NI35 359-469): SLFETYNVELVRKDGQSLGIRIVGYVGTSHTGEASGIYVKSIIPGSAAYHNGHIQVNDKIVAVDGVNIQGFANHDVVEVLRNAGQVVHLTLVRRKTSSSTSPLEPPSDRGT
DLG2_2, Q15700, sequence (Q15700 189-283): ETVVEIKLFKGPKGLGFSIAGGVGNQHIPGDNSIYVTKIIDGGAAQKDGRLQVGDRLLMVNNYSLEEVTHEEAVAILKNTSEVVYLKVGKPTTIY
SCRIB_2, Q14160, sequence (Q14160 857-960): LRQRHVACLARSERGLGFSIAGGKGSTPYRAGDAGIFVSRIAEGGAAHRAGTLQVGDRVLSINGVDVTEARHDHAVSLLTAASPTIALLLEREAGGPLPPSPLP
LNX1_3, Q8TBB1, sequence (Q8TBB1 500-596): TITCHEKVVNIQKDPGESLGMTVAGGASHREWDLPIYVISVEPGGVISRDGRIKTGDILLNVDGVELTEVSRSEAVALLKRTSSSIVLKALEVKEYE
MAGI2_4, Q86UL8, sequence (Q86UL8 772-865): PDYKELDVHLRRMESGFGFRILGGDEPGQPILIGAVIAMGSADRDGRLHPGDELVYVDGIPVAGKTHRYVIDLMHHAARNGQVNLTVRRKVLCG
Inadl_6, Q8NI35, sequence (Q8NI35 1058-1167): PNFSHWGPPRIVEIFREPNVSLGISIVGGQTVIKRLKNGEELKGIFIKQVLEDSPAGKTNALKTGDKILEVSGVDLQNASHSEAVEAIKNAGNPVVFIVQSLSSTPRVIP
IL16_4, Q14005, sequence (Q14005 1229-1329): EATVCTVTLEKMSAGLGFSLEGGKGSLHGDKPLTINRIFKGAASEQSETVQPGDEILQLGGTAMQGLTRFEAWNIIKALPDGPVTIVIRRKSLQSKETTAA
LNX1_2, Q8TBB1, sequence (Q8TBB1 371-470): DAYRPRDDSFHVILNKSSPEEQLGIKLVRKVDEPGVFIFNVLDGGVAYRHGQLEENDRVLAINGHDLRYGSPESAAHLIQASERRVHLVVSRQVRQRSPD

DYSNLRETDI [ADRA1D, P25100]
pKd (SNTG2, Q9NY99; [1]): 5.05
pKd (SNTB1, Q13884; [1]): 5.57
pKd (AHNAK1, Q09666; [1]): below the threshold
pKd (PDZD2_2, O15018; [1]): 4.18
pKd (LIN7C, Q9NUP9; [1]): 4.05
pKd (DLG2_2, Q15700; [1]): 4.35
pKd (NHERF3_4, Q5T2W1; [1]): below the threshold
pKd (TIAM2, Q8IVF5; [1]): below the threshold
pKd (PDZRN3_1, Q9UPQ7; [1]): 3.69
pKd (Inadl_3, Q8NI35; [1]): 3.84
pKd (FRMPD2_2, Q68DX3; [1]): below the threshold
pKd (LNX1_2, Q8TBB1; [1]): below the threshold
pKd (SCRIB_2, Q14160; [1]): 4.73
pKd (LAP2, Q96RT1; [1]): 3.84
pKd (HTRA4, P83105; [1]): 3.75
pKd (GRIP1_4, Q9Y3R0; [1]): below the threshold
pKd (DLG1_3, Q12959; [1]): below the threshold
pKd (LNX1_3, Q8TBB1; [1]): below the threshold
pKd (ARHGEF11, O15085; [1]): below the threshold
pKd (TJP1_3, Q07157; [1]): below the threshold
pKd (Inadl_6, Q8NI35; [1]): 3.73
pKd (MAGI2_4, Q86UL8; [1]): below the threshold
pKd (IL16_4, Q14005; [1]): below the threshold
pKd (APBA3_1, O96018; [1]): below the threshold
pKd (SNX27, Q96L92; [1]): 4.21
pKd (LNX2_3, Q8N448; [1]): below the threshold

SAGADSETHC [SLCO1B1, Q9Y6L6]
pKd (SNTG2, Q9NY99; [1]): 3.61
pKd (SNTB1, Q13884; [1]): 3.87
pKd (AHNAK1, Q09666; [1]): below the threshold
pKd (PDZD2_2, O15018; [1]): 3.68
pKd (LIN7C, Q9NUP9; [1]): 3.93
pKd (DLG2_2, Q15700; [1]): below the threshold
pKd (NHERF3_4, Q5T2W1; [1]): below the threshold
pKd (TIAM2, Q8IVF5; [1]): below the threshold
pKd (PDZRN3_1, Q9UPQ7; [1]): below the threshold
pKd (Inadl_3, Q8NI35; [1]): below the threshold
pKd (FRMPD2_2, Q68DX3; [1]): below the threshold
pKd (LNX1_2, Q8TBB1; [1]): below the threshold
pKd (SCRIB_2, Q14160; [1]): below the threshold
pKd (LAP2, Q96RT1; [1]): below the threshold
pKd (HTRA4, P83105; [1]): below the threshold
pKd (GRIP1_4, Q9Y3R0; [1]): below the threshold
pKd (DLG1_3, Q12959; [1]): below the threshold
pKd (LNX1_3, Q8TBB1; [1]): below the threshold
pKd (ARHGEF11, O15085; [1]): below the threshold
pKd (TJP1_3, Q07157; [1]): below the threshold
pKd (Inadl_6, Q8NI35; [1]): below the threshold
pKd (MAGI2_4, Q86UL8; [1]): below the threshold
pKd (IL16_4, Q14005; [1]): below the threshold
pKd (APBA3_1, O96018; [1]): below the threshold
pKd (SNX27, Q96L92; [1]): 4.65
pKd (LNX2_3, Q8N448; [1]): below the threshold

SRSRRRETAL [HPV33-E6_-2P, P06427]
pKd (SNTG2, Q9NY99; [2]): below the threshold
pKd (SNTB1, Q13884; [2]): below the threshold
pKd (AHNAK1, Q09666; [2]): below the threshold
pKd (PDZD2_2, O15018; [2]): below the threshold
pKd (LIN7C, Q9NUP9; [2]): 4.08
pKd (DLG2_2, Q15700; [2]): below the threshold
pKd (NHERF3_4, Q5T2W1; [2]): below the threshold
pKd (TIAM2, Q8IVF5; [2]): below the threshold
pKd (PDZRN3_1, Q9UPQ7; [2]): below the threshold
pKd (Inadl_3, Q8NI35; [2]): below the threshold
pKd (FRMPD2_2, Q68DX3; [2]): below the threshold
pKd (LNX1_2, Q8TBB1; [2]): below the threshold
pKd (SCRIB_2, Q14160; [2]): below the threshold
pKd (LAP2, Q96RT1; [2]): below the threshold
pKd (HTRA4, P83105; [2]): below the threshold
pKd (GRIP1_4, Q9Y3R0; [2]): below the threshold
pKd (DLG1_3, Q12959; [2]): below the threshold
pKd (LNX1_3, Q8TBB1; [2]): below the threshold
pKd (ARHGEF11, O15085; [2]): below the threshold
pKd (TJP1_3, Q07157; [2]): below the threshold
pKd (Inadl_6, Q8NI35; [2]): below the threshold
pKd (MAGI2_4, Q86UL8; [2]): below the threshold
pKd (IL16_4, Q14005; [2]): below the threshold
pKd (APBA3_1, O96018; [2]): below the threshold
pKd (SNX27, Q96L92; [2]): below the threshold
pKd (LNX2_3, Q8N448; [2]): below the threshold

GVHSNDHSVV [LPAR1, Q92633]
pKd (SNTG2, Q9NY99; [1]): below the threshold
pKd (SNTB1, Q13884; [1]): 3.69
pKd (AHNAK1, Q09666; [1]): below the threshold
pKd (PDZD2_2, O15018; [1]): 4.99
pKd (LIN7C, Q9NUP9; [1]): below the threshold
pKd (DLG2_2, Q15700; [1]): 3.74
pKd (NHERF3_4, Q5T2W1; [1]): below the threshold
pKd (TIAM2, Q8IVF5; [1]): 3.94
pKd (PDZRN3_1, Q9UPQ7; [1]): below the threshold
pKd (Inadl_3, Q8NI35; [1]): below the threshold
pKd (FRMPD2_2, Q68DX3; [1]): below the threshold
pKd (LNX1_2, Q8TBB1; [1]): below the threshold
pKd (SCRIB_2, Q14160; [1]): below the threshold
pKd (LAP2, Q96RT1; [1]): below the threshold
pKd (HTRA4, P83105; [1]): below the threshold
pKd (GRIP1_4, Q9Y3R0; [1]): below the threshold
pKd (DLG1_3, Q12959; [1]): below the threshold
pKd (LNX1_3, Q8TBB1; [1]): below the threshold
pKd (ARHGEF11, O15085; [1]): 3.58
pKd (TJP1_3, Q07157; [1]): below the threshold
pKd (Inadl_6, Q8NI35; [1]): below the threshold
pKd (MAGI2_4, Q86UL8; [1]): below the threshold
pKd (IL16_4, Q14005; [1]): 3.76
pKd (APBA3_1, O96018; [1]): below the threshold
pKd (SNX27, Q96L92; [1]): below the threshold
pKd (LNX2_3, Q8N448; [1]): below the threshold
